# Assay results reported in patent US20240116985A1, “STAPLED PEPTIDES AND METHODS THEREOF” (priority 2020, published 2024).
# Starred links: 1 amine or outer side, 2 acyl side, 3 side chain; linkers in the order of their positions; H or OH if unused. Positions of bridges follow the written chain, without caps; N, C: chain ends. Non-standard residues stand in square brackets, D forms with d. Primed or numbered codes have the meaning given here. PyrS2″ = (S)-3-amino-1-((pent-4-en-1-yloxy)carbonyl)pyrrolidine-3-carboxylic acid (stapling residue), C=CCCCOC(=O)N1CC[C@@](N[*:1])(C(=O)[*:2])C1; B5(4) = 2,2-bis(4-pentenyl)glycine = 2-amino-2-(pent-4-en-1-yl)hept-6-enoic acid (stitching residue), C=CCCCC(CCCC=C)(N[*:1])C(=O)[*:2]; PyrS2 = (S)-3-amino-1-((pent-4-en-1-yloxy)carbonyl)pyrrolidine-3-carboxylic acid, C=CCCCOC(=O)N1CC[C@@](N[*:1])(C(=O)[*:2])C1; B5(19) = 2-amino-2-(pent-4-en-1-yl)hept-6-enoic acid (bis(4-pentenyl)glycine), C=CCCCC(CCCC=C)(N[*:1])C(=O)[*:2]; Phe(F5) = N[C@@H](Cc1c(F)c(F)c(F)c(F)c1F)C(=O)O; Bta = N[C@@H](Cc1csc2ccccc12)C(=O)O; hTyr = N[C@@H](CCc1ccc(O)cc1)C(=O)O; αAllylPro = C=CC[C@@]1(C(=O)O)CCCN1; tBuAla = CC(C)(C)C[C@H](N)C(=O)O; 3Thi = N[C@@H](Cc1ccsc1)C(=O)O; R5 = C=CCCC[C@@](C)(N)C(=O)O; hLeu = CC(C)CC[C@H](N)C(=O)O; S5 = C=CCCC[C@](C)(N)C(=O)O; hSer = N[C@@H](CCO)C(=O)O; Aib = CC(C)(N)C(=O)O
# B1: I-1780 (peptide)
# peptide: Ac-[αAllylPro]D[tBuAla][S5]DD[Aib]AF[R5]A[3Thi][Bta][S5]A-NH2
# modifications: staple (positions not given here); not fully specified; printed as Ac-PL3-Asp-Npg-S5-Asp-Asp-Aib-Ala-Phe-R5-Ala-3Thi-BztA-S5-Ala-NH2; also: staple pairing among PL3 1, S5 4, R5 10, S5 14 not given here
# B2: I-1793 (peptide)
# peptide: Ac-[αAllylPro]D[tBuAla][B5(19)]DHAAF[hSer][PyrS2][3Thi][Bta]Q-NH2
# modifications: staple 1-4, 4-11; not fully specified; printed as Ac-PL3-Asp-Npg-B5-Asp-His-Ala-Ala-Phe-Hse-PyrS2-3Thi-BztA-Gln-NH2
# B3: I-1781 (peptide)
# peptide: Ac-[αAllylPro]D[tBuAla][S5]DD[Aib]AF[R5]A[3Thi][Bta][S5]A-NH2
# modifications: staple (positions not given here); not fully specified; printed as Ac-PL3-Asp-Npg-S5-Asp-Asp-Aib-Ala-Phe-R5-Ala-3Thi-BztA-S5-Ala-NH2; also: staple pairing among PL3 1, S5 4, R5 10, S5 14 not given here
# B4: I-1778 (peptide)
# peptide: Ac-[αAllylPro]D[tBuAla][S5]DDAAF[R5]A[3Thi][Bta][S5]A-NH2
# modifications: staple (positions not given here); not fully specified; printed as Ac-PL3-Asp-Npg-S5-Asp-Asp-Ala-Ala-Phe-R5-Ala-3Thi-BztA-S5-Ala-NH2; also: staple pairing among PL3 1, S5 4, R5 10, S5 14 not given here
# Biological target: full-length beta-Catenin (Uniprot ID P35222) (Homo sapiens (Human)) (UniProt P35222)
# Experiment: fluorescence polarization competition against 5FAM-TCF4 10-53 on full-length beta-catenin
row,IC50,Binder
1,528 nM,"Ac-[αAllylPro]D[tBuAla][B5(19)]DYAAFL[PyrS2][3Thi][Bta]Q-NH2 (staple 1-4, 4-11) [I-1784]"
2,935 nM,"Ac-[αAllylPro]D[tBuAla][B5(19)]D[Phe(F5)]AAFL[PyrS2][3Thi][Bta]Q-NH2 (staple 1-4, 4-11) [I-1792]"
3,4190 nM,B1
4,183 nM,"Ac-[αAllylPro]D[tBuAla][B5(19)]DWAAF[hSer][PyrS2][3Thi][Bta]Q-NH2 (staple 1-4, 4-11) [I-1789]"
5,20 nM,B2
6,8450 nM,B3
7,2060 nM,"Ac-[αAllylPro]D[tBuAla][B5(4)]NTAAF[hLeu][PyrS2″][3Thi][Bta]Q-NH2 (staple 1-4, 4-11) [I-1620]"
8,42 nM,"Ac-[αAllylPro]D[tBuAla][B5(19)]D[hTyr]AAF[hSer][PyrS2][3Thi][Bta]Q-NH2 (staple 1-4, 4-11) [I-1786]"
9,182 nM,"Ac-[αAllylPro]D[tBuAla][B5(19)]D[Phe(F5)]AAF[hSer][PyrS2][3Thi][Bta]Q-NH2 (staple 1-4, 4-11) [I-1791]"
10,266 nM,"Ac-[αAllylPro]D[tBuAla][B5(4)]NTAAFT[PyrS2″][3Thi][Bta]Q-NH2 (staple 1-4, 4-11) [I-1621]"
11,2080 nM,B4
12,58 nM,"Ac-[αAllylPro]D[tBuAla][B5(19)]DWAAFN[PyrS2][3Thi][Bta]Q-NH2 (staple 1-4, 4-11) [I-1788]"
13,101 nM,"Ac-[αAllylPro]D[tBuAla][B5(19)]DYAAF[hSer][PyrS2][3Thi][Bta]Q-NH2 (staple 1-4, 4-11) [I-1783]"
